Source: US20220396632A1 (VERSEAU THERAPEUTICS, published 2022)

T1: Biotin sY51 PSGL-1(42-62) peptide (human, sulfotyrosine at Y51; C-terminal Lys-biotin)
T1 construct: also called Y51(SO3) PSGL-1(42-62)
T1 peptide: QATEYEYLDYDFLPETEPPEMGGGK

T2: Biotin Y46,48,51(SO3) PSGL-1(42-62) peptide (human, sulfotyrosine at Y46, Y48 and Y51; C-terminal Lys-biotin)
T2 construct: also called fully sulfated N-terminal PSGL-1 peptide
T2 peptide: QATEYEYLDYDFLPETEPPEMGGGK

T3: Biotin sY46 PSGL-1(42-62) peptide (human, sulfotyrosine at Y46; C-terminal Lys-biotin)
T3 peptide: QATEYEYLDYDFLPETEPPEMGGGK

T4: Biotin sY48 PSGL-1(42-62) peptide (human, sulfotyrosine at Y48; C-terminal Lys-biotin)
T4 construct: also called sY48S
T4 peptide: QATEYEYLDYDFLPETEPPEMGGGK

T5: Biotin PSGL-1(42-62) P55A peptide (C-terminal Lys-biotin)
T5 peptide: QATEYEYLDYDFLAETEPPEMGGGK

T6: PSGL-1(42-62) N-terminal peptide, sulfation state not told at the place (human, not fully specified; sulfation of Y46, Y48, Y51 not stated for these table columns)
T6 peptide: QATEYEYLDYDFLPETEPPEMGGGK

T7: Recombinant human PSGL-1(ECD)-hFc1 (R&D Systems, Cat. 3345-PS) (human, UniProt Q14242 42-305)
T7 construct: Bought; Gln42-Val295 counted on AAC50061; also called PSGL-1-Fc; PSGL-1-hFc1 chimera; not shown: human IgG1 Fc, Pro100-Lys330
T7 sequence: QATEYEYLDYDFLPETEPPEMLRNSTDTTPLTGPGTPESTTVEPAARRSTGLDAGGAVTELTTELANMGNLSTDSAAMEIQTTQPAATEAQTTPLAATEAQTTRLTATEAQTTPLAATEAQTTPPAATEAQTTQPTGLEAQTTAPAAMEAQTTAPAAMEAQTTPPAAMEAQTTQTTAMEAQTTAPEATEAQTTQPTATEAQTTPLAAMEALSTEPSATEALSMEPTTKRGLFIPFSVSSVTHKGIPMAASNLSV

T8: Biotin PSGL-1(42-62) D52A peptide (C-terminal Lys-biotin)
T8 peptide: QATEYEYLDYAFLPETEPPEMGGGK


Legend:
[1] = molecular target: T1, Biotin sY51 PSGL-1(42-62) peptide; experiment: ELISA, plate-bound mAb captures biotin peptide
Experimental: (§1) Two ELISA methods were performed. One procedure detected mAb binding to its plate-immobilized target and the other measured the immobilized antibody's ability to capture biotinylated PSGL-1₄₂₋₆₂. […] The plate was incubated for 45 min at 37° C. Plates were washed 3 times with wash buffer (PBS containing 0.05% tween 20, pH 7.4) and a single concentration (2 to 500 nM) or serially diluted (0.002-100 nM) anti-PSGL-1 mAb was added (25 ul/well) in assay buffer into appropriate wells. The plate was incubated for 45 min at 37° C., washed 3 times, and an appropriate HRP-conjugated secondary antibody added (25 ul/well) (HRP goat anti-mouse or anti-human IgG). After 45 min incubation at 37° C., the plate was washed, and antibody bound to plate-immobilized target was determined at A450 nm using HRP substrate (3,3′,5,5′-etramethylbenzidine (TMB)). For each antibody, duplicate values were averaged and assay background was subtracted. Except for the following, ELISAs involving plate-immobilized mAb capturing of biotinylated PSGL-1₄₂₋₆₂ peptides was performed in the same manner as described above: 3 ug/mL/25 ul per well of mAb was coated directly onto microtiter plate wells; biotinylated unmodified or sulfotyrosine PSGL-1₄₂₋₆₂ was serially diluted (3 nM-3 uM) into appropriate wells, and antibody-bound peptide was detected using HRP-streptavidin (Jackson Immunoresearch, Cat. #016-030-084).

[2] = molecular target: T2, Biotin Y46,48,51(SO3) PSGL-1(42-62) …; experiment: ELISA, plate-bound mAb captures biotin peptide
Experimental: as §1

[3] = molecular target: T3, Biotin sY46 PSGL-1(42-62) peptide; experiment: ELISA, plate-bound mAb captures biotin peptide
Experimental: as §1

[4] = molecular target: T4, Biotin sY48 PSGL-1(42-62) peptide; experiment: ELISA, plate-bound mAb captures biotin peptide
Experimental: as §1

[5] = molecular target: T5, Biotin PSGL-1(42-62) P55A peptide; experiment: ELISA; against wild-type PSGL-1 42-62
[6] = molecular target: T6, PSGL-1(42-62) N-terminal peptide, …; experiment: binding to PSGL-1 42-62
[7] = molecular target: T7, Recombinant human PSGL-1(ECD)-hFc1 (R&D …); experiment: Octet tandem; competitor 15A7
Experimental: (§2) Antibody binning was performed by ForteBio Octet® using a tandem assay format, with anti-human IgG biosensor-immobilized PSGL-1(ECD)-hFc1 protein, binding of competitor mAb followed by analyte antibody. As competition controls, the same antibody was competed against itself, and mAb competition was performed bidirectionally.
(§3) Antibody binning by tandem octet was performed by immobilizing 10 ug/mL PSGL-1(ECD)-hFc1 (R&D Systems, Cat. #3345-PS) in PBS, pH 7.4, onto anti-human IgG capture biosensors (ForteBio, Cat. #18-5060), binding of 100 nM competitor antibody for 300 sec., followed by binding of 100 nM of analyte mAb for 300 s in kinetic buffer (0.1% BSA in PBS containing 0.02% tween 20 and 0.05% sodium azide, pH 7.4). Synagis (Johnson et al. (1997) J. Infect. Dis. 176:1215-1224) served as a negative control mAb for competition. An Fc quench step (0.25 mg/mL human IgG Fcl; BioXcell, Cat. #BE0096, in kinetic buffer) was included when human mAbs were tested to prevent high background from the antibodies binding to the anti-human IgG biosensor. Biosensor regeneration buffer consisted of 10 mM glycine, pH 2.0.

[8] = molecular target: T7, Recombinant human PSGL-1(ECD)-hFc1 (R&D …); experiment: Octet tandem; competitor 16E17
Experimental: as §2, §3

[9] = molecular target: T7, Recombinant human PSGL-1(ECD)-hFc1 (R&D …); experiment: Octet tandem; competitor 18F17
Experimental: as §2, §3

[10] = molecular target: T7, Recombinant human PSGL-1(ECD)-hFc1 (R&D …); experiment: Octet tandem; competitor 18K07
Experimental: as §2, §3

[11] = molecular target: T7, Recombinant human PSGL-1(ECD)-hFc1 (R&D …); experiment: Octet tandem; competitor 19J23
Experimental: as §2, §3

[12] = molecular target: T7, Recombinant human PSGL-1(ECD)-hFc1 (R&D …); experiment: Octet tandem; competitor 19N05
Experimental: as §2, §3

[13] = molecular target: T7, Recombinant human PSGL-1(ECD)-hFc1 (R&D …); experiment: Octet tandem; competitor 20G13
Experimental: as §2, §3

[14] = molecular target: T8, Biotin PSGL-1(42-62) D52A peptide; experiment: ELISA; against wild-type PSGL-1 42-62

Binder	EC50 [1]	EC50 [2]	EC50 [3]	EC50 [4]	binding result [6]	% binding of analyte mAb [7]	% binding of analyte mAb [8]	% binding of analyte mAb [9]	% binding of analyte mAb [10]	% binding of analyte mAb [11]	% binding of analyte mAb [12]	% binding of analyte mAb [13]	also measured
20I15 (antibody, V domains shown, From mouse immunisation; only variable domains given; also called 20115) VH: EVKLVESGGGLVQPGGSLSLSCAASGFTFTDYYMSWVRQPPGKALEWLGFIRNKANGYTTEYSASVKGRFTISRDNSQSILYLQMNALRAEDSATYYCARTYLRRGYFDVWGTGTTVTVSS VL: DIVLTQSPASLAVSLGQRATISCRASKSVSTSGYSYMHWFQQKPGQPPKLLIYLASNLESGVPARFSGSGSGTDFTLNIHPVEEEDAATYYCQHSRELPLTFGAGTKLELK	~3000 nM	292 nM	~3000 nM	~3000 nM	–	–	–	–	–	–	–	–	–
43B6 (antibody, V domains shown, Control anti-PSGL-1 mAb, recombinant; only variable domains given; also called 43B3) VH: EVQLQQSGPDLVKPGALVKISCKASGYSFTAYYIHWVKQSHGKSLEWIGRVNPNTGGTSYNPKFKGKAILNVDKSSSTAYMELRSLTSEDSAVYYCARSGSPYYRYDDWGQGTTLTVSS VL: ENVLTQSPAIMSASPGEKVTMTCRASSTVNSTYLHWFQQKSGASPKLWIYGSSNLASGVPARFSGSGSGTSYSLTISSVEAEDAATYYCQQYSGYPLTFGAGTTLELK	–	–	–	–	–	–	–	–	–	–	–	–	EC50Ala/EC50 wt [5]: 9.5 fold
18K07 (antibody, V domains shown, From mouse immunisation; only variable domains given) VH: QIQLVQSGPELKKPGETVKISCEASGYTFTTYGMNWVKQAPGKGLKWMGWINTYSGVPTYADDFQGRFAFSVETSATTAYLQINNLKNEDAATYFCARSDDTYYGFAYWGQGTLVTVSA VL: not shown	–	–	–	–	no binding	23.9%	11.7%	91.4%	35.2%	92.9%	0%	0%	–
18F02 (antibody, V domains shown, From mouse immunisation; only variable domains given) VH: QVQLQQPGAELVKPGASVKLSCKASGYTFTSYWMHWVKQRPGQGLEWIGMIHPNSGRTNYNEKFKSKATLTVDKSSSTAYMQLSSLTSEDSAVYYCARSDYWGQGTTLTVSS VL: DIVMTQAAFSNPVTLGTSASISCRSSKSLLHSDGITYLYWFLQRPGQSPQLLIYRMSNLASGVPDRFSGSGSGTDFTLRISRVEAEDVGVYYCAQMLEFPRTFGGGTKLEIK	–	–	–	–	–	–	–	–	–	–	–	–	EC50Ala/EC50 wt [14]: > 100 fold
03D07 (antibody, IgG4, V domains shown) VH: EVKLLESGGGLVQPGGSLRLSCAASGFTFSSYALSWVRQAPGKGLEWVSAISGSGGNTYYADSVKGRFTISRDNSKNTLYLQMNSLRAEDTAVYYCAKVVGATNYWGQGTLVTVSS VL: DIVMTQTPLSLPVTLGQPASISCRSSQSLVYSDGHTYLSWFHQRPGQSPRRLIYKVSIRDSGVPDRFSGSGSGTDFTLKISRVEAEDVGVYYCMQRLQIPLTFGGGTKVEIK	~2000 nM	39.4 nM	971 nM	> 3000 nM	–	–	–	–	–	–	–	–	fold stronger binding than to the unmodified peptide [1]: ~10 fold; fold stronger binding than to the unmodified peptide [3]: ~10 fold
10F01 (antibody, IgG4, V domains shown) VH: EVQLVQSGGGLVQPGGSLRLSCAASGFTFSSYAMSWVRQAPGKGLEWVSALRGGDGGTYHADSVKGRFTISGDSSKNTLYLQMNSLRAEDTAVYYCARRMVGAAYAFDIWGQGTMVTVSS VL: LPVLTQPHSVSESPGKTVTISCTRSSGSIADNFVQWYRQRPGSAPTTVIYEGDQRPSGVPGRFSGSIDSSSNSASLTISGLQTDDEADYYCQSFDSYNRRTHVVFGGGTKLTVL	36.2 nM	~1 nM	~2000 nM	~3000 nM	–	–	–	–	–	–	–	–	–
16L15 (antibody, V domains shown, From mouse immunisation; only variable domains given) VH: DVKLVESGGGLVKLGGSLKLSCAASGFTFSSYYMSWVRQTPEKRLEWVATISNGGGSTYYPDSVKDRFTISRDNAKNTLYLQMSSLNSEDTAVYYCAKPLYYSNPWFAYWGQGTLVTVSA VL: DVLLTQTPLSLPVSLGDQASISCRSSQSIVHSNGNTYLEWYLQKPGQSPKLLIYKVSNRFSGVPDRFSGSGSGTDFTLKISRVEAEDLGVYYCFQGSHVPRTFGGGTKLEIK	–	–	–	–	–	–	–	–	–	–	–	–	EC50Ala/EC50 wt [14]: 21 fold
16E17 (antibody, V domains shown, From mouse immunisation; only variable domains given) VH: QIQLVQSGPELKKPGETVKISCKASGYAFTTYGMSWVKQAPGKGLKWMGWINTYSGVPKYADDFKGRFAFSLETSASTAYLHINNLKNEDTATYFCGRHYYGSSYFDYWGQGTTLTVSS VL: not shown	–	–	–	–	no binding	21%	16.3%	93.8%	67.4%	103%	5.1%	32.4%	–
19L04 (antibody, IgG4, V domains shown, From mouse immunisation; only variable domains given) VH: QIQLVQSGPELKKPGETVKISCKASGYTFTTYGMSWVKQAPGKGLKWMGWINTYSGVPTYADDFKGRFAFSLETSASTAYLQINNLKIEDTATYFCARHYYGSHYFDYWGQGTTLTVSS VL: DIMMTQSPSSLAMSVGQKVTLRCKSSQSLLNSSNQKNYLAWYQQKPGQSPKLLVYFASTRESGVPVRFIGSGSGTDFTLTISSMQAEDLADYFCQQHYFSPLTFGAGTKLELK	–	–	–	–	no binding	28.3%	61.9%	81.4%	50.5%	104%	44.3%	0%	–
19N05 (antibody, V domains shown, From mouse immunisation; only variable domains given) VH: QIQLVQSGPELKKPGETVKISCKASGYTFTTYGMSWVKQAPGKGLKWMGWINTYSGVPTFADDFKGRFAFSLETSASTAYLQINNLKNEDTATFFCARNYYGNHYFDYWGQGTTLTVSS VL: DVQITQSPSYLAASPGETISINCRASNNINKYLAWYQEKPGKTNKLLIYSGSTLQSGIPSRFSGSGSGTDFTLTISSLEPEDFAMYHCQQHNYYPLTFGAGTKLELK	–	–	–	–	no binding	36%	29.1%	65.3%	0%	125%	69.4%	0%	–
